Data as given in article PMC12714728 (npj Viruses, 2025).
Starred links: 1 amine or outer side, 2 acyl side, 3 side chain; linkers in the order of their positions; H or OH if unused. Positions of bridges follow the written chain, without caps; N, C: chain ends. No end group written: not given here. Suc = O=C(CCC(=O)[*:2])[*:1]

B1: cyclic peptide CP8 (peptide)
peptide: CLYRDPLGVAGGMGC
modifications: not fully specified (bridges); cysteine pairing not given here
notes: source: synthetic peptide (manual solid phase Fmoc chemistry, iodine oxidation, RP-HPLC)
B2: linear peptide LP1 (peptide)
peptide: Suc-VSLYRDPLGVAGGMGVY-NH2
notes: source: synthetic peptide (manual solid phase Fmoc chemistry, RP-HPLC)
B3: cyclic peptide CP11 (peptide)
peptide: CYRDPLGVAGGMC
modifications: disulfide 1-13
notes: as for B1
B4: cyclic peptide CP14 (peptide)
peptide: LYEDPLGVAGGMG
modifications: head-to-tail lactam cyclized (no template)
notes: as for B2

Legend:
[1] = molecular target: T1, hemagglutinin (HA) ectodomain of A/Vietnam/1203/2004 (H5N1) (influenza A virus A/Vietnam/1203/2004 …); assay: cell-based or functional assay
[2] = molecular target: T1, hemagglutinin (HA) ectodomain of …; assay: AlphaScreen or HTRF; conditions: both partners purified

Row | Binder | virus neutralization assay (VNA) EC50, H5/Viet virus [1] [µM] | IC50 [2] [µM]
1 | B1 | 34.6 | 1.55
2 | B2 | – | 47.9
3 | B3 | – | 7.78
4 | CYEDPLGVAGGMC (not fully specified; cysteine pairing not given here) [cyclic peptide CP12] | – | 28.8
5 | CYRDPLGVAGEMC (not fully specified; cysteine pairing not given here) [cyclic peptide CP13] | – | 39.8
6 | B4 | – | 10
